Measured values reported in the supplement of paper PMC9112550, “Optimization of the antimicrobial peptide Bac7 by deep mutational scanning” (BMC Biology, 2022).

Each sequence was assayed on Escherichia coli TOP10 (assay: shrunken log2 fold change of peptide-encoding DNA abundance (4.5 h post-induction vs induction); higher = less antimicrobial activity (less host growth inhibition)). Settings: time post-induction: 4.5 h; library: site-saturation at positions 5, 18, 19, 20.
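Note: peptides expressed intracellularly from a pBAD plasmid library in pooled LB shake-flask culture, induced with 0.3% L-arabinose, DNA abundance read by NGS, three biological replicates, DESeq2 with apeglm shrinkage.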

| Sequence | shrunken log2 fold change |
| --- | --- |
| RRIRVRPPRLPRPRPRPNCTPRP | -0.0535 |
| RRIRDRPPRLPRPRPRPMPLPRP | -0.0224 |
| RRIRPRPPRLPRPRPRPGPMPRP | 0.293 |
| RRIRYRPPRLPRPRPRPTQLPRP | -0.46 |
| RRIRERPPRLPRPRPRPNSYPRP | -0.433 |
| RRIRQRPPRLPRPRPRPKDWPRP | 0.377 |
| RRIRMRPPRLPRPRPRPVKWPRP | 0.0346 |
| RRIRGRPPRLPRPRPRPVDEPRP | 1.05 |
| RRIRFRPPRLPRPRPRPRGGPRP | 0.9 |
| RRIRMRPPRLPRPRPRPGQFPRP | 0.0853 |
| RRIRYRPPRLPRPRPRPFPCPRP | -0.467 |
| RRIRGRPPRLPRPRPRPDFTPRP | 0.22 |
| RRIRSRPPRLPRPRPRPWARPRP | 0.0355 |
| RRIRWRPPRLPRPRPRPKPTPRP | 0.0876 |
| RRIRVRPPRLPRPRPRPIMKPRP | -0.473 |
| RRIRWRPPRLPRPRPRPGLSPRP | -0.0318 |
| RRIRDRPPRLPRPRPRPSKQPRP | -0.257 |
| RRIRGRPPRLPRPRPRPAIPPRP | -0.0508 |
| RRIRHRPPRLPRPRPRPTVWPRP | 0.123 |
| RRIRWRPPRLPRPRPRPLSTPRP | 0.383 |
| RRIRQRPPRLPRPRPRPWVTPRP | -0.219 |
| RRIRTRPPRLPRPRPRPLLMPRP | -0.278 |
| RRIRTRPPRLPRPRPRPWFWPRP | 0.0569 |
| RRIRSRPPRLPRPRPRPPWQPRP | 0.449 |
| RRIRIRPPRLPRPRPRPQAHPRP | -0.261 |

| Sequence | shrunken log2 fold change |
| --- | --- |
| RRIRRRPPRLPRPRPRPIQNPRP | 0.0525 |
| RRIRCRPPRLPRPRPRPIQYPRP | -0.308 |
| RRIRMRPPRLPRPRPRPFPKPRP | 0.385 |
| RRIRKRPPRLPRPRPRPVIRPRP | 0.0302 |
| RRIRPRPPRLPRPRPRPWQQPRP | -0.0467 |
| RRIRNRPPRLPRPRPRPQSRPRP | 0.181 |
| RRIRTRPPRLPRPRPRPKMIPRP | 0.013 |
| RRIRKRPPRLPRPRPRPQKRPRP | 0.403 |
| RRIRDRPPRLPRPRPRPCTAPRP | 0.00714 |
| RRIRRRPPRLPRPRPRPWNQPRP | 0.0251 |
| RRIRSRPPRLPRPRPRPTYVPRP | -0.098 |
| RRIRVRPPRLPRPRPRPNEGPRP | -0.00311 |
| RRIRARPPRLPRPRPRPMLQPRP | 0.454 |
| RRIRCRPPRLPRPRPRPEPNPRP | 0.265 |
| RRIRFRPPRLPRPRPRPRGMPRP | 0.2 |
| RRIRRRPPRLPRPRPRPHGDPRP | 0.0543 |
| RRIRCRPPRLPRPRPRPFQSPRP | -0.0129 |
| RRIRWRPPRLPRPRPRPYDQPRP | -0.395 |
| RRIRLRPPRLPRPRPRPADSPRP | -0.182 |
| RRIRERPPRLPRPRPRPGIQPRP | -0.398 |
| RRIRRRPPRLPRPRPRPPAEPRP | 0.851 |
| RRIRIRPPRLPRPRPRPPMRPRP | 0.591 |
| RRIRKRPPRLPRPRPRPEVHPRP | 0.013 |
| RRIRDRPPRLPRPRPRPCDAPRP | -0.0239 |
| RRIRFRPPRLPRPRPRPLCFPRP | -0.211 |

| Sequence | shrunken log2 fold change |
| --- | --- |
| RRIRFRPPRLPRPRPRPMIKPRP | -0.749 |
| RRIRCRPPRLPRPRPRPPGSPRP | 0.379 |
| RRIRARPPRLPRPRPRPDGAPRP | 0.673 |
| RRIRTRPPRLPRPRPRPIQQPRP | -0.229 |
| RRIRLRPPRLPRPRPRPHSIPRP | -0.191 |
| RRIRNRPPRLPRPRPRPMGQPRP | 0.128 |
| RRIRHRPPRLPRPRPRPRPLPRP | 0.255 |
| RRIRCRPPRLPRPRPRPFAIPRP | -0.682 |
| RRIRCRPPRLPRPRPRPMRDPRP | 0.281 |
| RRIRIRPPRLPRPRPRPLRVPRP | 0.291 |
| RRIRGRPPRLPRPRPRPPNKPRP | 0.528 |
| RRIRYRPPRLPRPRPRPNAVPRP | -0.00911 |
| RRIRCRPPRLPRPRPRPLLPPRP | -0.143 |
| RRIRRRPPRLPRPRPRPRVLPRP | 0.349 |
| RRIRRRPPRLPRPRPRPKRCPRP | -0.131 |
| RRIRERPPRLPRPRPRPATSPRP | 0.0131 |
| RRIRERPPRLPRPRPRPTTMPRP | -0.364 |
| RRIRLRPPRLPRPRPRPNPEPRP | 0.0435 |
| RRIRERPPRLPRPRPRPFEAPRP | -0.342 |
| RRIRPRPPRLPRPRPRPWDWPRP | 0.00784 |
| RRIRWRPPRLPRPRPRPEYHPRP | 0.0167 |
| RRIRYRPPRLPRPRPRPWWPPRP | -0.254 |
| RRIRRRPPRLPRPRPRPYEYPRP | -0.206 |
| RRIRWRPPRLPRPRPRPHNGPRP | -0.349 |
| RRIRDRPPRLPRPRPRPRHMPRP | 0.0599 |

| Sequence | shrunken log2 fold change |
| --- | --- |
| RRIRWRPPRLPRPRPRPEKDPRP | -0.0712 |
| RRIRCRPPRLPRPRPRPSGEPRP | 0.299 |
| RRIRPRPPRLPRPRPRPTCNPRP | -0.142 |
| RRIRIRPPRLPRPRPRPITPPRP | -0.421 |
| RRIRIRPPRLPRPRPRPPILPRP | -0.0859 |
| RRIRNRPPRLPRPRPRPNRDPRP | -0.0094 |
| RRIRRRPPRLPRPRPRPNVSPRP | 0.137 |
| RRIRARPPRLPRPRPRPESGPRP | 0.793 |
| RRIRNRPPRLPRPRPRPYSHPRP | -0.317 |
| RRIRPRPPRLPRPRPRPWTMPRP | 0.0177 |
| RRIRCRPPRLPRPRPRPPGTPRP | 0.519 |
| RRIRIRPPRLPRPRPRPRSVPRP | -0.056 |
| RRIRMRPPRLPRPRPRPPLEPRP | 0.873 |
| RRIRTRPPRLPRPRPRPRGAPRP | 0.382 |
| RRIRTRPPRLPRPRPRPFYFPRP | -0.57 |
| RRIRCRPPRLPRPRPRPGNLPRP | -0.167 |
| RRIRRRPPRLPRPRPRPPEDPRP | 1.34 |
| RRIRARPPRLPRPRPRPPREPRP | 1.01 |
| RRIRRRPPRLPRPRPRPCKVPRP | -0.0103 |
| RRIRMRPPRLPRPRPRPQEYPRP | -0.0485 |
| RRIRWRPPRLPRPRPRPNRMPRP | 0.126 |
| RRIRLRPPRLPRPRPRPCEYPRP | 0.0103 |
| RRIRSRPPRLPRPRPRPNEKPRP | -0.0451 |
| RRIRIRPPRLPRPRPRPDDTPRP | -0.131 |
| RRIRWRPPRLPRPRPRPMLWPRP | 0.0929 |

| Sequence | shrunken log2 fold change |
| --- | --- |
| RRIRYRPPRLPRPRPRPNLRPRP | -0.341 |
| RRIRERPPRLPRPRPRPYQFPRP | -0.159 |
| RRIRNRPPRLPRPRPRPFCRPRP | -0.223 |
| RRIRIRPPRLPRPRPRPDYHPRP | -1.9 |
| RRIRHRPPRLPRPRPRPCRIPRP | -0.0589 |
| RRIRMRPPRLPRPRPRPTMYPRP | 0.187 |
| RRIRKRPPRLPRPRPRPTQSPRP | 0.441 |
| RRIRKRPPRLPRPRPRPQLAPRP | 0.898 |
| RRIRMRPPRLPRPRPRPNPRPRP | 0.718 |
| RRIRTRPPRLPRPRPRPGTLPRP | 0.16 |
| RRIRNRPPRLPRPRPRPWLLPRP | -0.436 |
| RRIRNRPPRLPRPRPRPPWMPRP | -0.00995 |
| RRIRNRPPRLPRPRPRPVTMPRP | -0.514 |
| RRIRTRPPRLPRPRPRPFSDPRP | -0.399 |
| RRIRIRPPRLPRPRPRPNNEPRP | -0.597 |
| RRIRQRPPRLPRPRPRPKSPPRP | -0.089 |
| RRIRPRPPRLPRPRPRPRLGPRP | 0.586 |
| RRIRTRPPRLPRPRPRPYIAPRP | -0.476 |
| RRIRYRPPRLPRPRPRPRPRPRP | 0.463 |
| RRIRLRPPRLPRPRPRPTDLPRP | -0.0813 |
| RRIRWRPPRLPRPRPRPRWYPRP | -0.0387 |
| RRIRWRPPRLPRPRPRPIFSPRP | 0.0085 |
| RRIRVRPPRLPRPRPRPSHNPRP | -0.692 |
| RRIRDRPPRLPRPRPRPRLVPRP | 0.314 |
| RRIRPRPPRLPRPRPRPYRYPRP | 0.101 |

| Sequence | shrunken log2 fold change |
| --- | --- |
| RRIRNRPPRLPRPRPRPRECPRP | 0.0263 |
| RRIRSRPPRLPRPRPRPDDLPRP | 0.0166 |
| RRIRVRPPRLPRPRPRPHGQPRP | -0.0326 |
| RRIRIRPPRLPRPRPRPQFKPRP | -0.609 |
| RRIRPRPPRLPRPRPRPEMQPRP | 1.05 |
| RRIRSRPPRLPRPRPRPKSIPRP | -0.228 |
| RRIRRRPPRLPRPRPRPLMQPRP | 0.396 |
| RRIRCRPPRLPRPRPRPELTPRP | 0.0136 |
| RRIRRRPPRLPRPRPRPTCKPRP | 0.0874 |
| RRIRKRPPRLPRPRPRPCTAPRP | 0.383 |
| RRIRTRPPRLPRPRPRPMFIPRP | -0.305 |
| RRIRPRPPRLPRPRPRPFASPRP | 0.132 |
| RRIRQRPPRLPRPRPRPWHVPRP | -0.0656 |
| RRIRTRPPRLPRPRPRPGRPPRP | 0.217 |
| RRIRMRPPRLPRPRPRPSMWPRP | 0.09 |
| RRIRIRPPRLPRPRPRPDFCPRP | -0.42 |
| RRIRFRPPRLPRPRPRPIPQPRP | 0.132 |
| RRIRPRPPRLPRPRPRPKCNPRP | -0.125 |
| RRIRTRPPRLPRPRPRPIYWPRP | -0.157 |
| RRIRHRPPRLPRPRPRPFNVPRP | 1.22 |
| RRIRMRPPRLPRPRPRPRMWPRP | 1.04 |
| RRIRHRPPRLPRPRPRPLWRPRP | 0.57 |
| RRIRMRPPRLPRPRPRPANDPRP | 0.0988 |
| RRIRSRPPRLPRPRPRPHITPRP | -0.734 |
| RRIRKRPPRLPRPRPRPMRFPRP | 0.123 |
